Measured values taken from publication PMC5057311.

Experiments:
[1] = molecular target: CD80 on cynomolgus monkey blood cells (cynomolgus monkey (endogenous in blood cells)); assay: flow cytometry on cells
[2] = molecular target: CD86 on cynomolgus monkey blood cells (cynomolgus monkey (endogenous in blood cells)); assay: flow cytometry on cells

percent free CD80 of predose, Day 14, high dose (3 mg/kg) [1]: 3%
percent free CD80 of predose, Day 14, middle dose (0.3 mg/kg) [1]: 42%
percent suppression of free CD80 upon administration (all dose groups) [1]: > 90%
serum CTLA4‐Ig concentration at ∼90% target suppression [1]: 0.18 µg/mL
percent free CD86 of predose, 4 h after the low dose (0.03 mg/kg) [2]: 67%
serum CTLA4‐Ig concentration at ∼90% target suppression [2]: 33 µg/mL
Substance: CTLA4‐Ig recombinant fusion protein (from UniProt P16410 36-161) (Fc fusion)
